Reference: patent publication US20080299228A1, “TOPICAL COMPOSITIONS COMPRISING A MACROMOLECULE AND METHODS OF USING SAME” (priority 2007, published 2008)
No end group written: not given here. *: point of attachment. 125I = [125I]*

Experiments:
[1] = Effect of process parameters and excipients on rehydration time of lyophilized HEC gel; assay type: physicochemical; set-up: key: ✓: Additives that had a positive effect (i.e., reduction in hydration time) have a check mark beside them; details: additive screening
Procedure: Preliminary studies on rehydration time used water (see Table 13). Rehydration in 12% hexylene glycol, a humectant, decreased the rehydration time for a HEC 250HX lyophilized cake down to 20-30 minutes. Further experiments used 12% hexylene glycol for rehydration.
The freezing rate for lyophilized products can affect the cake structure. Freezing at −20° C. was the standard procedure used in this study. To investigate the effect of a faster freezing rate, samples were frozen in a dry ice/ethanol bath at −48° C.
Samples from both freezing methods were lyophilized. During the lyophilization process, all samples from the ice bath freezing collapsed into dense cakes. During rehydration, the ice bath frozen cakes were much slower to form gels. It took at least 1 hour to rehydrate the ice bath frozen cakes.
HEC 250HX gels at 1.125 and 2.25% polymer were prepared. The latter gel was more viscous than the former due to the higher polymer concentration. After freeze drying, cakes from both products were rehydrated so that the final polymer concentration was 1.125%. The lyophilized gels prepared with the more concentrated polymer solution required approximately 15-20 minutes longer to rehydrate than the more dilute formulation. The higher density of the concentrated polymer cake was likely a factor in the longer rehydration time.
Additives with a wide range of physical properties were screened to evaluate their effect on rehydration time for a lyophilized 1.125% HEC 250HX gel. The chemical classes included in this screen were polymers, surfactants, amino acids, colloidal powders, and salts. All additives were crystalline at room temperature. The use of amorphous excipients could lead to melting/cake collapse at elevated temperature. When evaluating chemical classes, priority was given to those included in the IIG for topicals. Excipients shown to be physically and/or chemically incompatible with PTH(1-34) were excluded (4). Salts containing polyvalent anions were also excluded to avoid the potential for precipitating PTH(1-34).
“Powdered” solid formulations were also evaluated. […]

[2] = Percutaneous absorption of 125I macromolecules, in vitro cadaver skin finite dose technique; assay type: in vitro ADME, human; details: for Total Absorption / Dermis / Epidermis / Stratum Corneum / Surface Wash: 48 hours
Source text: Radiolabeled Bovine Serum Albumin was acquired from American Radiolabeled Chemicals (St. Louis, Mo.) as ARI 0112 Albumin (bovine serum) [I^125] with a specific activity of 204 Ci/mmol (Lot number 080372). Radiolabeled Epidermal Growth Factor (murine) and Somatastatin were acquired from Perkin Elmer Life and Analytical Sciences (Boston, Mass.) as [^125I]-Epidermal Growth Factor (murine) and [^125I]Tyr11-Somatostatin 14 with specific activities of 2200 Ci/mmol (Lot number CC41180) and 2200 Ci/mmol (Lot number JX32880), respectively. Each stock isotope was either provided as, or reconstituted into 12.5 μL of distilled de-ionized water. This volume was added to 500 μL of the provided test formulations and mixed for uniformity. Replicate assessments were made from each final mixture to determine specific activity.
Skin Preparation. Percutaneous absorption was measured using the in vitro cadaver skin finite dose technique. Ex vivo human trunk skin without obvious signs of skin disease, obtained within 24-48 hours of death, was used in this study. Skin was dermatomed, prepared for cryopreservation, sealed in a water impermeable plastic bag, and stored at <−70° C. until the day of the experiment. Prior to use, it was thawed in ˜37° C. water, then rinsed in water to remove any adherent blood or other material from the surface.
Skin from a single donor was cut into multiple smaller sections large enough to fit on static 1.0 cm^2 Franz diffusion cells (see FIG. 6). The dermal chamber was filled to capacity with a reservoir solution of phosphate-buffered isotonic saline (PBS), pH 7.4±0.1, and the epidermal cell (chimney) left open to ambient laboratory conditions. All cells were mounted in a diffusion apparatus in which the dermal bathing solution was stirred magnetically at approximately 600 RPM and the skin surface temperature maintained at 32.0° C.±1.0° C.
To assure the integrity of each skin section, its permeability to tritiated water was determined before application of the test products. Following a brief (0.5-1 hour) equilibrium period, ^3H2O (NEN, Boston, Mass., sp. Act. ˜0.5 μCi/mL) was layered across the top of the skin by dropper so that the entire exposed surface was covered (approximately 250-500 μL). After 5 minutes the ^3H2O aqueous layer was removed. At 30 minutes the receptor solution was collected and analyzed for radioactive content by liquid scintillation counting. Skin specimens in which absorption of ^3H2O was less than 1.56 μL-equ/cm^2 were considered acceptable.
Dosing and Sample Collection. Just prior to dosing, the reservoir solution was replaced with a fresh solution of 1× PBS and a pre-dose sample taken for analysis. The chimney was removed from the Franz Cell to allow full access to the epidermal surface of the skin. All formulations were then applied to the skin sections using a positive displacement pipette set to deliver 5 μL formulation/cm^2. The dose was spread across the surface with the Teflon® tip of the pipette. Five to ten minutes after application, the chimney portion of the Franz Cell was replaced. At pre-selected times after dosing (1, 2, 4, 8, 12, 24, 32, and 48 hours) the reservoir solution was removed in its entirety, replaced with fresh reservoir solution, and a predetermined volume aliquot saved for subsequent analysis.
After the last sample was collected, the surfaces were washed twice (0.5 mL volume each) with 1× PBS to collect un-absorbed formulation from the surface of the skin. Following the wash, the skin was tape stripped a sufficient number of times to collect the stratum corneum. The skin was then removed from the chamber and split into epidermis and dermis. All skin sections were dissolved overnight in Soluene-350® (Perkin Elmer).
Analytical Methods. Analysis of all formulations was by liquid scintillation counting. One-milliliter volumes of each receptor solution and each surface wash received 5-6 mL scintillation fluid or as needed. […]

[3] = Rehydration time of lyophilized polymer gels; assay type: physicochemical; details: xanthan gum, carrageenan
Procedure: Lyophilized gels were prepared by slowing adding the polymer to water with stirring. For gels with methylcellulose or hydroxypropylcellulose, the polymer was added to hot water and the product was cooled with stirring. The gels took between 1-3 hours to reach maximum viscosity. All gels were allowed to stand for at least 12 hours before any additional processing. If PTH(1-34) was included in the formulation, the peptide was added to an aliquot of gel and gently stirred for 10 minutes.
Prior to lyophilization, gels were filled into Type I glass vials and frozen. Freezing was performed on a freezer shelf (−20° C.) or in a dry ice/ethanol bath (˜−48° C.). The lyophilizer (Ultra-dry Labtop, Freezedry Specialties, Inc) was equipped with a condenser (−50° C.) and an ultra high vacuum pump (DUO 2.5, Pfeiffer Vacuum, Inc) to provide optimal conditions for sublimating the frozen water. No heating or cooling was applied to the lyophilizer shelf. Vials containing lyophilized gels with PTH(1-34) were purged with nitrogen before stoppering (Teflon coated butyl rubber) and sealing (aluminum crimp seal).
A panel of lyophilized polymer gel was screened for the capacity to reform gels following rehydration. […]

[4] = assay type: physicochemical
Procedure: All excipients for the room temperature gel formulations met USP/NF monographs. Reagents for analysis were HPLC and/or ACS grade and nitrogen was ultra high purity (>99.999%). PTH(1-34) was supplied by Neo-MPS. Reverse phase HPLC RP-HPLC analysis of reconstituted gels/solutions was performed according to standard methods.
At each time point, two assays were performed on each formulation.
Before preparing larger batches for longer term stability studies, three pilot batches were prepared on the 10 g scale to assess the solid product's stability. The batches included either PTH(1-34) plus HEC, PTH(1-34) plus HEC in 1.0% mannitol and PTH(1-34) plus HEC in 1.0% lactose. The lyophilized gels were prepared according to the method of Example 8. Stability was assayed according to by HPLC.
The PTH(1-34) formulations that included HEC in 1.0% mannitol and HEC alone were prepared on a larger scale for use in a long-term stability analysis. In addition to these two lyophilized gel formulations, neat PTH(1-34), i.e., PTH powder, was also filled into vials (purged with nitrogen).
PTH was assayed by HPLC analysis of reconstituted gels/solutions. The samples were assayed before storage, stored at 40° C. and assayed at 1, 3, and 6 months after storage. At each time point, 2 assays were performed on each formulation. […]

[5] = 0.5 hr (midpoint), Mean ± SE, n = 3 Donors
[6] = 28.0 hr (midpoint), Mean ± SE, zeros below LLOQ
[7] = percent of applied dose, Mean ± SE

[Cl-].[Na+] [Sodium Chloride]
effect of additive on hydration time of lyophilized 1.125% HEC 250 HX gel [1]: Sodium Chloride✓

[Cl-].[K+] [Potassium Chloride]
effect of additive on hydration time of lyophilized 1.125% HEC 250 HX gel [1]: Potassium Chloride✓

Bovine Serum Albumin: [125I] bovine serum albumin in HEC gel, 1.0 mg/mL
Mean Flux [2, 5]: 4.69 ± 3.93 ng/cm^2/hr | Mean Flux ([2]; 1.5 hr (midpoint), Mean ± SE): 1.04 ± 1.04 ng/cm^2/hr | Mean Flux ([2]; 3.0 hr (midpoint), Mean ± SE): 0.71 ± 0.43 ng/cm^2/hr | Mean Flux ([2]; 6.0 hr (midpoint), Mean ± SE): 0.26 ± 0.12 ng/cm^2/hr | Mean Flux ([2]; 10.0 hr (midpoint), Mean ± SE): 0.05 ± 0.05 ng/cm^2/hr | Mean Flux ([2]; 18.0 hr (midpoint), Mean ± SE): 0.04 ± 0.04 ng/cm^2/hr | Mean Flux [2, 6]: 0.02 ± 0.02 ng/cm^2/hr | Mean Flux ([2]; 40.0 hr (midpoint), Mean ± SE): 0.06 ± 0.03 ng/cm^2/hr | Total Absorption ([2]; single application, Mean ± SE): 0.010 ± 0.007 µg | Dermis ([2]; Mean ± SE): 0.079 ± 0.024 µg | Epidermis ([2]; Mean ± SE): 0.423 ± 0.060 µg | Stratum Corneum ([2]; Mean ± SE): 0.616 ± 0.157 µg | Surface Wash ([2]; Mean ± SE): 3.788 ± 0.357 µg | Dermis ([2]; percent of applied dose): 1.607 ± 0.487% | Epidermis ([2]; percent of applied dose): 8.610 ± 1.230% | Stratum Corneum ([2]; percent of applied dose): 12.552 ± 3.202% | Surface Wash ([2]; percent of applied dose): 77.182 ± 7.273% | Total Absorption [2, 7]: 0.205 ± 0.148%

Epidermal Growth Factor: [125I]-Epidermal Growth Factor (murine) in HEC gel, 0.1 mg/mL
Mean Flux [2, 5]: 0.40 ± 0.21 ng/cm^2/hr | Mean Flux ([2]; 1.5 hr (midpoint), Mean ± SE): 0.11 ± 0.08 ng/cm^2/hr | Mean Flux ([2]; 3.0 hr (midpoint), Mean ± SE): 0.07 ± 0.06 ng/cm^2/hr | Mean Flux ([2]; 6.0 hr (midpoint), Mean ± SE): 0.04 ± 0.02 ng/cm^2/hr | Mean Flux ([2]; 10.0 hr (midpoint), Mean ± SE): 0.09 ± 0.06 ng/cm^2/hr | Mean Flux ([2]; 18.0 hr (midpoint), Mean ± SE): 0.01 ± 0.01 ng/cm^2/hr | Mean Flux [2, 6]: 0.00 ± 0.00 ng/cm^2/hr | Mean Flux ([2]; 40.0 hr (midpoint), Mean ± SE): 0.01 ± 0.00 ng/cm^2/hr | Total Absorption ([2]; single application, Mean ± SE): 0.001 ± 0.000 µg | Dermis ([2]; Mean ± SE): 0.008 ± 0.002 µg | Epidermis ([2]; Mean ± SE): 0.013 ± 0.001 µg | Stratum Corneum ([2]; Mean ± SE): 0.014 ± 0.001 µg | Surface Wash ([2]; Mean ± SE): 0.479 ± 0.005 µg | Dermis ([2]; percent of applied dose): 1.629 ± 10.311% | Epidermis ([2]; percent of applied dose): 2.646 ± 0.242% | Stratum Corneum ([2]; percent of applied dose): 2.773 ± 0.131% | Surface Wash ([2]; percent of applied dose): 98.145 ± 1.046% | Total Absorption [2, 7]: 0.278 ± 0.095%

CC(O)C(=O)[O-].[Na+] (stereo not drawn) [Sodium Lactate]
effect of additive on hydration time of lyophilized 1.125% HEC 250 HX gel [1]: Sodium Lactate✓

Somatostatin: [125I]Tyr11-Somatostatin 14 in HEC gel, 1.0 mg/mL (AGCKNFFWKTY(125I)TSC; ends and bridges not checked; UniProt P61278 103-116, looked up, variant F11Y)
Mean Flux [2, 5]: 8.09 ± 3.68 ng/cm^2/hr | Mean Flux ([2]; 1.5 hr (midpoint), Mean ± SE): 2.14 ± 1.89 ng/cm^2/hr | Mean Flux ([2]; 3.0 hr (midpoint), Mean ± SE): 0.54 ± 1.89 ng/cm^2/hr | Mean Flux ([2]; 6.0 hr (midpoint), Mean ± SE): 0.22 ± 0.20 ng/cm^2/hr | Mean Flux ([2]; 10.0 hr (midpoint), Mean ± SE): 0.11 ± 0.05 ng/cm^2/hr | Mean Flux ([2]; 18.0 hr (midpoint), Mean ± SE): 0.02 ± 0.02 ng/cm^2/hr | Mean Flux [2, 6]: 0.00 ± 0.00 ng/cm^2/hr | Mean Flux ([2]; 40.0 hr (midpoint), Mean ± SE): 0.01 ± 0.00 ng/cm^2/hr | Total Absorption ([2]; single application, Mean ± SE): 0.013 ± 0.007 µg | Dermis ([2]; Mean ± SE): 0.118 ± 0.008 µg | Epidermis ([2]; Mean ± SE): 0.180 ± 0.010 µg | Stratum Corneum ([2]; Mean ± SE): 0.190 ± 0.009 µg | Surface Wash ([2]; Mean ± SE): 4.561 ± 0.118 µg | Dermis ([2]; percent of applied dose): 2.410 ± 0.169% | Epidermis ([2]; percent of applied dose): 3.697 ± 0.200% | Stratum Corneum ([2]; percent of applied dose): 3.886 ± 0.180% | Surface Wash ([2]; percent of applied dose): 93.493 ± 2.412% | Total Absorption [2, 7]: 0.234 ± 0.149%

PTH(1-34): parathyroid hormone fragment 1-34, supplied by Neo-MPS
compatibility with anionic polymers [3]: not compatible with anionic polymers

XF15//339006-2: Neat PTH(1-34) from Neo-MPS, lyophilized powder, vials purged with nitrogen
degradation (in words) [4]: significant degradation | reduction of PTH(1-34) assay ([4]; six months of storage at 40° C.): ~25%
